Three molecules from paper PMC13216289 (NPJ Vaccines, 2026) can be followed below.

What all share (details): both partners purified
Test [1] deals with VP1 subunit of reduced O1M VLPs (Foot-and-mouth disease virus …, UniProt Q6PMW3). Description: far-Western, overlay or dot blot.
The target in test [2] is VP1 C-terminal peptide, residues 196-210 of O/UKG/34/2001 (Foot-and-mouth disease virus …, UniProt Q80B19). The test is described as follows: ELISA.
The target in test [3] is VP1 C-terminal peptide, residues 199-213 of O/UKG/34/2001 (Foot-and-mouth disease virus …, UniProt Q80B19). Description: ELISA. (ELISA stands for enzyme-linked immunosorbent assay.)

B1: Ab34 (antibody, V domains shown)
VH: QVQLRESGPSLVKPSQTLSLTCTVSGFSLTDVHVGWVRQTPGKALEWVGVICNRGAIGYNPALESRLSITEDNSKSQVSLSLSSVTTADTATYYCASSCRTEGDVGGDCDSDHFFCAWGQGLLVTVSS
VL: SYELTQPTSVSVALGQTAKITCSGDLLDRQYAQWYQQKPGQGPVRVIYKDSERPSGISDRFSGSSSGKTATLTVSGAQTEDEADYYCHSADSSHYPVFGSGSTLTVL
Regarding B1, the binding result in test [1] is given as “binds”.

B2: Ab17 (antibody, V domains shown)
VH: QVQLRESGPSSLKPSQTLSLTCAVSGFSLSTYAVGWVRQAPGKALEWVGDITSSGDTFYNPALKSRFSITKDNSKNQVSLSVGSVTPEDTATFYCTRLTCGDDCSTAWHNFDAWGQGLLVTVSS
VL: SYELTQPTSVSVALGQTAKITCSGDLLDVQYTQWYQQKPGQGPVRVIYKDSERPSGISDRFSGSSSGKTATLIISGAQTEDEADYYCQSTDSSQYGIFGRGTTLTVL
Turning to B2, the binding result in test [1], in test [2] and in test [3] was “binds” in each case.

B3: Ab49 (antibody, V domains shown)
VH: QVQLRESGPSLVKPSQTLSLTCTVSGFSLTNYAVGWVRQAPGKAIQSLSIISTTGDTYYNPALKSRLSITKDNSKSQVSLSVSSVAPEDTATYYCVKFCGNADSAGHGWGCDYGDNENWGQGLLVTVSS
VL: SYELTQPTSVSVALGQTAKITCSGDLLDEQYTQWYQQKPGQGPVRVIYKDSERPSGISDRFSGSSSGKTATLTISGAQTEDEADYYCQSFYSSTDPVFGSGTTLTVL
Regarding B3, the binding result in test [1], in test [2] and in test [3] was “binds” throughout.
